From US20250263697

Assays:
[1] = target: NSP12 (RNA-dependent RNA polymerase) (SARS-CoV-2) (UniProt P0DTD1)
[2] = test system: NSP8 (primase) (SARS-CoV-2)
[3] = test system: N (nucleocapsid) (SARS-CoV-2); details: eCLIP in infected Vero E6 cells

Substance	binding signal [1] [fold]	binding signal [2] [fold]	binding signal [3] [fold]
SARS-CoV-2 genome 7436-7526, positive strand	13.7	–	–
SARS-CoV-2 genome 5' end, positive strand	573	107	–
SARS-CoV-2 genome 9602-9620, positive strand	–	–	9.5
